Data reported in publication doi:10.1101/2024.06.02.596995.

Tests used:
[1] = biological target: Armitage ΔN34-Flag (D. melanogaster) (UniProt Q6J5K9); assay: co-IP
[2] = biological target: Armitage KEE-Flag (D. melanogaster) (UniProt Q6J5K9); assay: co-IP

- binding efficiency relative to WT Armi [1]: 20%
- binding efficiency relative to WT Armi [2]: 34%
Substance: Daedalus (Daed), endogenous in OSCs (natural protein)
